# According to patent US20210140973A1 (NITTO BOSEKI, published 2021):
# T1: GST-tagged peptide H38 (H10 with R289K, E299Q and L325P) (human, UniProt P0DOX5 343-449 = IgG part)
# T1 construct: not shown: N-terminal GST tag (from vector pGEX-6P-1) and any vector linker
# T1 chain: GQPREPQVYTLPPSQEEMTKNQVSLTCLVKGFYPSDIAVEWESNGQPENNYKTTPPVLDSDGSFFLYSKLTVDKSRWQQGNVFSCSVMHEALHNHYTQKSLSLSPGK
# T2: GST-tagged peptide H32 (H10 with lysine for arginine at position 289) (human, UniProt P01861 221-325 = IgG part)
# T2 construct: not shown: GST tag (glutathione S-transferase) linked to the N terminal, expressed from vector pGEX-6P-1
# T2 chain: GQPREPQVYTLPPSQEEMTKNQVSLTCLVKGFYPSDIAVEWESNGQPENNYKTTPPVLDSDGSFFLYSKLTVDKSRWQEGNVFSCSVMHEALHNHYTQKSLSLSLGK
# Tests used:
# [1] = target: Myeloma human IgD (Abcam) (human, UniProt P01880-1 1-384); assay: indirect ELISA, antigen coated 1 µg/mL, antibody 1 µg/mL; no-antigen well 0.042
# Experimental: (§1) Myeloma human IgA1 (Abcam), Myeloma human IgA2 (Abcam), Myeloma human IgD (Abcam), Myeloma human IgE (Abcam), Myeloma human IgM (Abcam), Myeloma human IgG1 (EMD Millipore), Myeloma human IgG2 (EMD Millipore), Myeloma human IgG3 (Sigma-Aldrich Co. LLC), and Myeloma human IgG4 (EMD Millipore) were adjusted to 1 μg/mL with PBS(−). The adjusted samples were added to a 96-well plate (Thermo Fisher Scientific) by 100 μL, respectively. The plate was shaken by a shaker under the condition of 700 rpm and 25.0° C. for 1 hour. The solutions were discarded, the plate was cleaned with 300 μL of PBST 3 times, 100 μL of a blocking buffer solution was added to each well, and then the plate was stored at 4° C. one night or more. Similarly, after cleaning with PBST, the MaI4-08 and MaI4-09-produced antibodies were adjusted to 1 μg/mL with an antibody dilute buffer solution and then added to each well by 100 μL, and the plate was shaken under the same condition as mentioned above. Similarly, after cleaning with PBST, a HRP labeled anti-mouse IgG antibody (Abcam) diluted 4000-fold with an antibody dilute buffer solution was added to each well by 100 μL, and the plate was shaken under the same condition as mentioned above. Similarly, after cleaning with PBST, 100 μL of SureBlue (KPL) was added. 5 or 3 minutes later, 100 μL of 0.5 mol/L sulfuric acid (Wako Pure Chemical Corporation) was added to each of MaI4-08 and MaI4-09. Absorbance at a wavelength of 450 nm was measured with a microplate reader (BIO-RAD Laboratories, Inc.). As a result, a strong signal was given to Myeloma human IgG4 as compared to the other samples (Tables 2 and 3, and FIGS. 2 and 3).
# [2] = target: Myeloma human IgA2 (Abcam) (human, UniProt P01877-1 1-340); assay: as above
# Experimental: as §1
# [3] = target: T3, Myeloma human IgG4 (EMD Millipore) (human); assay: as above
# T3 construct: Bought myeloma protein
# Experimental: as §1
# [4] = target: T4, Myeloma human IgG2 (EMD Millipore) (human); assay: as above
# T4 construct: Bought myeloma protein
# Experimental: as §1
# [5] = target: T5, Myeloma human IgG1 (EMD Millipore) (human); assay: as above
# T5 construct: Bought myeloma protein
# Experimental: as §1
# [6] = target: Myeloma human IgA1 (Abcam) (human, UniProt P01876-1 1-353); assay: as above
# Experimental: as §1
# [7] = target: T6, Myeloma human IgG3 (Sigma-Aldrich Co. LLC) (human); assay: as above
# T6 construct: Bought myeloma protein
# Experimental: as §1
# [8] = target: Myeloma human IgM (Abcam) (human, UniProt P01871-1 1-453); assay: as above
# Experimental: as §1
# [9] = target: Myeloma human IgE (Abcam) (human, UniProt P01854-1 1-428); assay: as above
# Experimental: as §1
# [10] = target: T1, GST-tagged peptide H38 (H10 with R289K, …); assay: Western blot: E. coli lysate with the GST-tagged peptide, SDS-PAGE, PVDF membrane, POD-labelled antibody diluted 1000-fold, ECL
# Experimental: (§2) Based on the designed amino acid sequences, base sequences suitable for expressing protein in E. coli were designed according to the protocol of GenScript Corporation, thereby preparing vector pGEX-6P-1 (GE Healthcare Bio-Sciences Corp.) to which the respective base sequences are inserted. The prepared expression plasmid was introduced to E. coli BL 21 strain, thereby obtaining a transformant. The transformant was cultured by an ordinary method and a protein expression was induced by IPTG. After the cells were collected by centrifugation, the cells were dissolved with an ordinary lysis solution, and subjected to ultrasonication. 6 μL of an SDS sample buffer solution was added to 6 μL of the obtained lysate. The respective prepared samples were subjected to a heat treatment at 95° C. for 5 minutes. 10 μL of the E. coli disrupted sample was added to each well of 5 to 20% electrophoresis gel (Atto Corportation) to which an SDS electrophoresis buffer solution was added. Similarly, a molecular weight standard (Bio-Rad Laboratories, Inc.) was added to each well and electrophoresed. After completing the electrophoresis, the electrophoresis gel was transcribed to a PVDF membrane (Millipore Corporation) with a transfer buffer solution. The PVDF membrane was immersed in a membrane blocking buffer solution, and then shaking was carried out at room temperature for 30 minutes. Amino groups of MaI4-08, MaI4-09, and MaI4-05-produced antibodies were subjected to a POD labeling treatment with a POD labeling kit (Dojindo Molecular Technologies, Inc.). The obtained labeled antibodies each were diluted 1000-fold by PBST. After the PVDF membrane was cleaned with PBST, the antibody solutions prepared each were added to the PVDF membrane, and then the reaction was performed at room temperature for 1 hour. After the PVDF membrane was cleaned by PBST, a signal was detected with ECL Prime Western Blotting Detection Reagents (GE Healthcare) with Image Quant Las4000.
# [11] = target: T2, GST-tagged peptide H32 (H10 with lysine …); assay: as above
# Experimental: as §2
# T6 sequence (constant, as listed by the source limits assumed): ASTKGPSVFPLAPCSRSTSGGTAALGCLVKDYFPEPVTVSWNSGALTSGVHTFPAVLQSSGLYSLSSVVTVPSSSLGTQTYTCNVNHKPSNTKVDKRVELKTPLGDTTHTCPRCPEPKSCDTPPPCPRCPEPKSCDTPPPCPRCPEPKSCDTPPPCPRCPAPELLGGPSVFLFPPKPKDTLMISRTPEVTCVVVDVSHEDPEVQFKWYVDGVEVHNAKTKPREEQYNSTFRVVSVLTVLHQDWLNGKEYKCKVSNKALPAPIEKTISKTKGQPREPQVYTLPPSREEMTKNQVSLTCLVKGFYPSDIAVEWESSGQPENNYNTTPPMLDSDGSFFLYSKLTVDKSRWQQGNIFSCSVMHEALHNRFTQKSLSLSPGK
# Sequence of Myeloma human IgE (Abcam) (P01854 other isoform, or with tags, fused parts or gaps): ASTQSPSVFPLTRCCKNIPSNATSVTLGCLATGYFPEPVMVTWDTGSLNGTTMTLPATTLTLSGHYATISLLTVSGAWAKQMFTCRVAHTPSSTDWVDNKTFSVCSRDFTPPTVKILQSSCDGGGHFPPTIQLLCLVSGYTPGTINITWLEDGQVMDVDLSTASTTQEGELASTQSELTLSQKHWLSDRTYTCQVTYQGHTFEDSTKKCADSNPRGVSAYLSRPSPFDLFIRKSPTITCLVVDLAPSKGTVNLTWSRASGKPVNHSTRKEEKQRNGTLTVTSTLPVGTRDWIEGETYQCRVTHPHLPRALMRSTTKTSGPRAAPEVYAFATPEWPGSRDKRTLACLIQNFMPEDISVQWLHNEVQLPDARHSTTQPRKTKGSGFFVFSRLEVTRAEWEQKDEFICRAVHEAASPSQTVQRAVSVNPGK
# Sequence of Myeloma human IgD (Abcam) (P01880 other isoform, or with tags, fused parts or gaps): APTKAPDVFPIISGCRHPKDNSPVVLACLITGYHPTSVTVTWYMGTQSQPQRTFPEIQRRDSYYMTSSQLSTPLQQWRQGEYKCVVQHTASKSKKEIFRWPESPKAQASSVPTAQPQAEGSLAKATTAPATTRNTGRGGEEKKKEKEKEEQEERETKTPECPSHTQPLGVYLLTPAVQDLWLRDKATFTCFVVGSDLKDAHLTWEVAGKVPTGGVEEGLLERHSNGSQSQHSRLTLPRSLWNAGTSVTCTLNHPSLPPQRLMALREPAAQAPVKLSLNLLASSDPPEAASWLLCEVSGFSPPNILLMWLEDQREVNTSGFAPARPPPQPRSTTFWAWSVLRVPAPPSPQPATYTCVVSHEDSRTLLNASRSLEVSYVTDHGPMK
# Sequence of Myeloma human IgA1 (Abcam) (P01876 other isoform, or with tags, fused parts or gaps): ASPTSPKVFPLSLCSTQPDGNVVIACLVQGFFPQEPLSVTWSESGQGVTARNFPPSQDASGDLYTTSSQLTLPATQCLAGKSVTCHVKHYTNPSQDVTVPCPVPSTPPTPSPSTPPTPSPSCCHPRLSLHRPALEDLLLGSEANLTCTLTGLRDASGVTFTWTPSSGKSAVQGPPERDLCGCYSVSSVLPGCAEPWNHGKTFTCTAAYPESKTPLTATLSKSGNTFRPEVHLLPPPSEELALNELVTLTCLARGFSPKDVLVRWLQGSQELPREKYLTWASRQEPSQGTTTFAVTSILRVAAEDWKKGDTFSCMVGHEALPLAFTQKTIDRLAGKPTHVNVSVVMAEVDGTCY
# T4 sequence (constant, as listed by the source limits assumed): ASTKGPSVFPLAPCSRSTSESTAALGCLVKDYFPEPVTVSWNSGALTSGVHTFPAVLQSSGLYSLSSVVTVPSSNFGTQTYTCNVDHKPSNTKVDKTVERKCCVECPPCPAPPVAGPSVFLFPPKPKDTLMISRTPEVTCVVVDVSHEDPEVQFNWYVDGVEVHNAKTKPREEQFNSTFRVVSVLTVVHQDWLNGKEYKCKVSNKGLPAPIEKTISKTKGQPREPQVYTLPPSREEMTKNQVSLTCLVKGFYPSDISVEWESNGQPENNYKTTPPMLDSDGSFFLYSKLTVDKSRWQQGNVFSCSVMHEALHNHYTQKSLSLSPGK
# Sequence of Myeloma human IgA2 (Abcam) (P01877 other isoform, or with tags, fused parts or gaps): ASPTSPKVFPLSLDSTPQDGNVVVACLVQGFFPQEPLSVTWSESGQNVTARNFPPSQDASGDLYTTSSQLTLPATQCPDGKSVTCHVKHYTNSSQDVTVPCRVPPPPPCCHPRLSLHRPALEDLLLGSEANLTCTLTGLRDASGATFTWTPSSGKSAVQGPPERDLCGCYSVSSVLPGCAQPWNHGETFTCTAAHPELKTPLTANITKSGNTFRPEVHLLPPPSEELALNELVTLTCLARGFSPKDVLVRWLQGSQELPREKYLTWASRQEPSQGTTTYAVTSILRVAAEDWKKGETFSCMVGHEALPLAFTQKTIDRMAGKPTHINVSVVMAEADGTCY
# T3 sequence (constant, as listed by the source limits assumed): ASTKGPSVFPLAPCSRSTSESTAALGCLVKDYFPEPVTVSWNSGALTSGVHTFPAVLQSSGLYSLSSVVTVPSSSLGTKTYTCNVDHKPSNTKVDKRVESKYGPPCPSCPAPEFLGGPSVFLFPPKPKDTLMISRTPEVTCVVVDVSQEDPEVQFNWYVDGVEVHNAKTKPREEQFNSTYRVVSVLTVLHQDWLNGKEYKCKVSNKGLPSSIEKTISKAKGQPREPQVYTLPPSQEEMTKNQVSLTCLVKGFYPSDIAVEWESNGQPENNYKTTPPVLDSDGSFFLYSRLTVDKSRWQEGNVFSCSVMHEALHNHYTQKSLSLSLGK
# T5 sequence (constant, as listed by the source limits assumed): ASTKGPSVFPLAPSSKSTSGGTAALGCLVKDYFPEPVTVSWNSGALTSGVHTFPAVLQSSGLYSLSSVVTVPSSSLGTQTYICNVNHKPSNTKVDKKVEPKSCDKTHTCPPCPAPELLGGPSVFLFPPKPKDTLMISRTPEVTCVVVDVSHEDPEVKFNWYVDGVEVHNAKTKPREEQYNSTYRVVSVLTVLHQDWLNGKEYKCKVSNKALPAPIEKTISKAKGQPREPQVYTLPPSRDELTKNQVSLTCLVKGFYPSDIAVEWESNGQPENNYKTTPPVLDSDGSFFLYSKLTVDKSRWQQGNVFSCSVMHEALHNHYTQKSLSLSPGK
# Sequence of Myeloma human IgM (Abcam) (P01871 other isoform, or with tags, fused parts or gaps): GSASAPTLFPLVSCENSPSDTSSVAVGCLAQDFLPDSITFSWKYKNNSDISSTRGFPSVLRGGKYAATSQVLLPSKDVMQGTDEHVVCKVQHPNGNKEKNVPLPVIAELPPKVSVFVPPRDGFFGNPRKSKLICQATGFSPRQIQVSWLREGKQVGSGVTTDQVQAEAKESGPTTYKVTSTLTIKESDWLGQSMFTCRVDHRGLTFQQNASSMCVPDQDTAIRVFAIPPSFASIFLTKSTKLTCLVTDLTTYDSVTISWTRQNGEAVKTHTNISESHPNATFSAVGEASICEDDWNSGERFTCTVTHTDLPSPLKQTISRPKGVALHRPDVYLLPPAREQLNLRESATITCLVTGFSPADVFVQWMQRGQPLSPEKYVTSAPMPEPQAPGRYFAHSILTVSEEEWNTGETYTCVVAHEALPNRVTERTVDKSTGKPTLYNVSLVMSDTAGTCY
binder,measurement,setting,value
"MaI4-08-produced antibody (antibody, IgG1, V domains shown, Purified on protein G from hybridoma culture supernatant; POD-labelled for the Western blots) VH: EVQLQQSGPELVKPGTSVKMSCKASGYIFTSYILHWVKQKPGQGLEWIAYINPYNDGTKYKEKFKGKGTLTSDKSSSTAYMELSSLTSEDSAVYYCARSGGGYGNYAWFAYWGPGTLVTVST VL: DIQMTQSPSSLSASLGERVSLTCRASQDIGSSLNWLQQEPDGTIKRLIYATSSLDSGVPKRFSGSRSGSDYSLTISSLESEDFVDYYCLQYASYPPTFGAGTKLELK",absorbance at 450 nm,[1],0.042
same,absorbance at 450 nm,[2],0.043
same,absorbance at 450 nm,[3],2.04
same,absorbance at 450 nm,[4],0.047
same,absorbance at 450 nm,[5],0.048
same,absorbance at 450 nm,[6],0.043
same,absorbance at 450 nm,[7],0.044
same,absorbance at 450 nm,[8],0.042
same,absorbance at 450 nm,[9],0.041
same,binding result,[10],no binding
same,binding result,[11],binds
